The record followed here is patent publication US20070020706A1 (UNIVERSITY HOSPITALS OF CLEVELAND, published 2007).

Sequences and labels used below:
B1: truncated P2X7-j receptor protein (receptor)
chain: MPACCSCSDVFQYETNKVTRIQSMNYGTIKWFFHVIIFSYVCFALVSDKLYQRKEPVISSVHTKVKGIAEVKEEIVENGVKKLVHSVFDTADYTFPLQGNSFFVMTNFLKTEGQEQRLCPEYPTRRTLCSSDRGCKKGWMDPQSKGIQTGRCVVHEGNQKTCEVSAWCPIEAVEEAPRPALLNSAENFTVLIKNNIDFPGHNYTTRNILPGLNITCTFHKTQNPQCPIFRLGDIFRETGDNFSDVAIQIRQVLQGKQC
notes: Untagged P2X7-j, expressed in HEK-293 cells or endogenous in human cancer cell lines; Runs as 42-45 kDa bands; also called P2X7-RTR
B2: full-length human P2X7 receptor (receptor)
chain: MPACCSCSDVFQYETNKVTRIQSMNYGTIKWFFHVIIFSYVCFALVSDKLYQRKEPVISSVHTKVKGIAEVKEEIVENGVKKLVHSVFDTADYTFPLQGNSFFVMTNFLKTEGQEQRLCPEYPTRRTLCSSDRGCKKGWMDPQSKGIQTGRCVVHEGNQKTCEVSAWCPIEAVEEAPRPALLNSAENFTVLIKNNIDFPGHNYTTRNILPGLNITCTFHKTQNPQCPIFRLGDIFRETGDNFSDVAIQGGIMGIEIYWDCNLDRWFHHCHPKYSFRRLDDKTTNVSLYPGYNFRYAKYYKENNVEKRTLIKVFGIRFDILVFGTGGKFDIIQLVVYIGSTLSYFGLAAVFIDFLIDTYSSNCCRSHIYPWCKCCQPCVVNEYYYRKKCESIVEPKPTLKYVSFVDESHIRMVNQQLLGRSLQDVKGQEVPRPAMDFTDLSRLPLALHDTPPIPGQPEEIQLLRKEATPRSRDSPVWCQCGSCLPSQLPESHRCLEELCCRKKPGACITTSELFRKLVLSRHVLQFLLLYQEPLLALDVDSTNSRLRHCAYRCYATWRFGSQDMADFAILPSCCRWRIRKEFPKSEGQYSGFKSPY
notes: Expressed from cDNA in HEK-293 cells or endogenous in human cells and tissues (CaSki, HeLa, cervical tissue); Mostly assayed in cell extracts on immunoblots, where it runs as 65, 75 and 85 kDa forms; also called P2X7-RFL; P2X7-WT

What all share (assay): densitometry of oligomer bands on an immunoblot, HEK293 cells co-expressing P2X7 and P2X7-j
The target in series [1] is B2.
Series [2] deals with the molecule itself.
The target of series [3] is B1.

In the case of B1, the figures for the “relative band density (ratio)” value in series [1] and in series [2] were 15 ratio parts and 70 ratio parts, respectively.

Consider B2, for which the “relative band density (ratio)” value in series [3] was 5 ratio parts; in series [2] it was 10 ratio parts.
